We go through two molecules from PMC13388985 (Nature Communications, 2026).

In experiment [1] the target is T1, GST-tagged wild-type Af1521 macrodomain (UniProt O28751 1-192).
T1 sequence: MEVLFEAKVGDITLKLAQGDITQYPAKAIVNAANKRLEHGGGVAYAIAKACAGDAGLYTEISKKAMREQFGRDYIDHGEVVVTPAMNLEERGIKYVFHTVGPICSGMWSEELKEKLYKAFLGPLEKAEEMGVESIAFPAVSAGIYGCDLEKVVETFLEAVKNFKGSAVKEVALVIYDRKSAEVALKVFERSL
Description: pull-down.

The target of experiment [2] is T2, GST-tagged Af1521-K35E/Y145R macrodomain (UniProt O28751 1-192, K35E | Y145R).
T2 sequence: T1 sequence with K35E, Y145R
Description: pull-down.

Positions count from the first letter of the chain named. No end group written: not given here.

With GWTAR(ADP‑ribose)KSAEAGTAGK-NH2 [Synthetic peptide GWTARKSAEAGTAGK-amide with ADPr on Arg-5], the binding result in experiment [1] and in experiment [2] was “binds” in each case.

GWTARKS(ADP‑ribose)AAAGTAGK-NH2 [Synthetic peptide GWTARKSAAAGTAGK-amide with ADPr on Ser-7]: the binding result in experiment [1] and in experiment [2] was “binds” each time.
